We go through one substance from publication PMC12589563.

By stoichiometry N is commonly meant a count of units in the complex or per binding partner.

The target of the assay is KCNQ1 of the KCNQ1APO structure (human) (UniProt P51787). Nature of the assay: cryo-EM structure; human KCNQ1 with CaM, apo state; C4 symmetry, 2.5 Å.

Take “KCNQ1 of the KCNQ1APO structure (from UniProt P51787 1-676) (natural protein)”: the stoichiometry N turned out to be 4.
